Experimental findings from US20090304686A1, “INTERFERING IN ACTIVATION OF AN IMMUNE CELL BY INFLUENCING INTERACTION OF LAIR AND COLLAGEN” (UNIVERSOTAIR MEDISCH CENTRUM UTRECHT, priority 2006, published 2009) are described below.

For data set [1], the target named is T1, human collagen type I (Homo sapiens, UniProt P02452+P08123).
T1 construct: purchased Sigma
The data set is described as follows: Surface plasmon resonance (BIAcore) binding of LAIR-IgG fusion proteins to immobilized collagen I. The protocol:
(§1) Surface plasmon resonance (BIAcore) binding studies were performed using a BIAcore2000 system (BIAcore AB, Uppsala, Sweden). Approximately 2000-3000 response units (RU) of acid-soluble human collagen type I or III (Sigma) were immobilized on a CM5 biosensor chip using the amine coupling kit as instructed by the supplier. Immobilized triple-helical peptides composed of GCO(GPO)10GCOG-NH2 ((GPO)10, also known as collagen-related peptide, CRP^6) and GCP(GPP)10GCPG-NH2 ((GPP)10) were described previously^6. Approximately 250 RU (GPP)10 or (GPO)10 peptide trimers were immobilized using a cysteine coupling kit according manufacturers instructions. Analysis was performed in buffer (125 mM NaCl, 2.5 mM CaCl2, 0.005% (v/v) Tween 20, and 25 mM Hepes, (pH 7.4)) at 25° C. at a flow rate of 20 μl/min for collagen I and III interaction-studies and 5 μl/min for the immobilized peptides. […] Increasing concentrations of hLAIR-1-IgG were injected and allowed to reach an equilibrium plateau for 10 minutes. The delay between injections was 13 min, during which time the biosensor chip was flushed with buffer. In case of peptide-binding studies, biosensor chips were regenerated by injection of 0.1 M H3PO4 (2 min, 5 μl/min).
(§2) Dissociation constants (Kd) and the number of binding sites expressed as the response at infinite hLAIR-1-IgG concentration (Bmax) were calculated as follows. First, the response at equilibrium (Req) was calculated for each association curve. Subsequently, Kd and Bmax were determined from the binding isotherms (Req plotted against hLAIR-1-IgG concentration) by fitting equation Req=Bmax*[hLAIR-1-IgG]/(Kd+[hLAIR-1-IgG]). The fit was calculated using computer program GraphPad Prism (GraphPad Prism version 3.00 for Windows; GraphPad Software, San Diego, Calif., USA). […]
(§3) The surface plasmon resonance binding studies were performed as described before(15). LAIR-2-IgG dimer concentration was calculated based on a theoretical mass of 82.5 kDa.

The target of data set [2] is T2, human collagen XVII (Homo sapiens, UniProt Q9UMD9).
T2 construct: Full-length human collagen XVII, HIS-tagged human collagen XIII, and human KIR3DL1 were kindly provided; expressed in transfected cells; host or cells: Ba/F3 (retroviral transduction)
T2 sequence (Q9UMD9 1-1497): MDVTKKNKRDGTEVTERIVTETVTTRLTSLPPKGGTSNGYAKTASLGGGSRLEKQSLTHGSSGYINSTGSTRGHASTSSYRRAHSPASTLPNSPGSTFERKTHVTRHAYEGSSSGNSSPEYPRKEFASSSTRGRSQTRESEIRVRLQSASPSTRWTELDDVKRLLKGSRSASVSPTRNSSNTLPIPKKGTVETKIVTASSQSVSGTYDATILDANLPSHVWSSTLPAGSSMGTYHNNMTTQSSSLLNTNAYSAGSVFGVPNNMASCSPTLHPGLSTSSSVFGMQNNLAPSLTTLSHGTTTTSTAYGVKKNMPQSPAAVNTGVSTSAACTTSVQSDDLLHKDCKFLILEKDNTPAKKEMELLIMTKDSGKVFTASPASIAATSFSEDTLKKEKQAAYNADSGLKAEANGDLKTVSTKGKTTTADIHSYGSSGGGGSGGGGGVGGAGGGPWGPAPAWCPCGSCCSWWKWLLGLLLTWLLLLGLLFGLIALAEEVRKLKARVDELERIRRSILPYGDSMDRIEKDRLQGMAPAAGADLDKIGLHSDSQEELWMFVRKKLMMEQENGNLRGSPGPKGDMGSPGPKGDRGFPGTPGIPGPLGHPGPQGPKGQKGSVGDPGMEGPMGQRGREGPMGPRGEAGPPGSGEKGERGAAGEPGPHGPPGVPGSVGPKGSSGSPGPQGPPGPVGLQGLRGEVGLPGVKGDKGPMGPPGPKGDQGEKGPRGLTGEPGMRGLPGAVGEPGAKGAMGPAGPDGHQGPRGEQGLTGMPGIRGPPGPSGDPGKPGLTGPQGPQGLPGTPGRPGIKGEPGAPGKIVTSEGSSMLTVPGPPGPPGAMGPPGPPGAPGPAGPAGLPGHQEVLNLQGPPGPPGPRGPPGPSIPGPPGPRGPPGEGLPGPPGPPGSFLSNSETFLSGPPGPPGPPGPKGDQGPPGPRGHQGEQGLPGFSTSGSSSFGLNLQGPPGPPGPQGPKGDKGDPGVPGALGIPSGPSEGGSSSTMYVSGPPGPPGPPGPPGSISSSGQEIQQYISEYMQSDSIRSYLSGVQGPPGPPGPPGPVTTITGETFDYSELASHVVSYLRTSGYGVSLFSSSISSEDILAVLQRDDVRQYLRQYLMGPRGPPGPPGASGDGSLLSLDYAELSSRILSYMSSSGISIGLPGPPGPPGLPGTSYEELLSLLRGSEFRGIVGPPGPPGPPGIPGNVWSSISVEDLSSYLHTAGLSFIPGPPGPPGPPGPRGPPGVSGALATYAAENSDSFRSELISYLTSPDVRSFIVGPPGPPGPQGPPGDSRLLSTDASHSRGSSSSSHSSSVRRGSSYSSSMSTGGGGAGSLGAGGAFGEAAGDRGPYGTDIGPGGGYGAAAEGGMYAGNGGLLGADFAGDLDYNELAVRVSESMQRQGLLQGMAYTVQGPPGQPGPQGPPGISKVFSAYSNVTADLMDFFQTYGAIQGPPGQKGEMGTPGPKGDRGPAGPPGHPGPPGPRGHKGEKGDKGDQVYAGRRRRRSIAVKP
The data set is described as follows: LAIR fusion protein staining of Ba/F3 cells transfected with human collagen XVII. The format is binding. The method, then: Chimeric proteins of rat, mouse, and human LAIR-1 or human LAIR-2 fused to the Fc region of human IgG1 were prepared and cell lines were stained with these reagents in the absence or presence of blocking antibodies as described previously^11. When indicated, cells were incubated for 1 h with 100 units/ml chromatography purified C. histolyticum collagenase Type VII (Sigma) prior fusion-protein staining.

In data set [3] the target is T3, human collagen type III (Homo sapiens, UniProt P02461).
T3 construct: purchased Sigma
T3 sequence (P02461 154-1221 limits assumed): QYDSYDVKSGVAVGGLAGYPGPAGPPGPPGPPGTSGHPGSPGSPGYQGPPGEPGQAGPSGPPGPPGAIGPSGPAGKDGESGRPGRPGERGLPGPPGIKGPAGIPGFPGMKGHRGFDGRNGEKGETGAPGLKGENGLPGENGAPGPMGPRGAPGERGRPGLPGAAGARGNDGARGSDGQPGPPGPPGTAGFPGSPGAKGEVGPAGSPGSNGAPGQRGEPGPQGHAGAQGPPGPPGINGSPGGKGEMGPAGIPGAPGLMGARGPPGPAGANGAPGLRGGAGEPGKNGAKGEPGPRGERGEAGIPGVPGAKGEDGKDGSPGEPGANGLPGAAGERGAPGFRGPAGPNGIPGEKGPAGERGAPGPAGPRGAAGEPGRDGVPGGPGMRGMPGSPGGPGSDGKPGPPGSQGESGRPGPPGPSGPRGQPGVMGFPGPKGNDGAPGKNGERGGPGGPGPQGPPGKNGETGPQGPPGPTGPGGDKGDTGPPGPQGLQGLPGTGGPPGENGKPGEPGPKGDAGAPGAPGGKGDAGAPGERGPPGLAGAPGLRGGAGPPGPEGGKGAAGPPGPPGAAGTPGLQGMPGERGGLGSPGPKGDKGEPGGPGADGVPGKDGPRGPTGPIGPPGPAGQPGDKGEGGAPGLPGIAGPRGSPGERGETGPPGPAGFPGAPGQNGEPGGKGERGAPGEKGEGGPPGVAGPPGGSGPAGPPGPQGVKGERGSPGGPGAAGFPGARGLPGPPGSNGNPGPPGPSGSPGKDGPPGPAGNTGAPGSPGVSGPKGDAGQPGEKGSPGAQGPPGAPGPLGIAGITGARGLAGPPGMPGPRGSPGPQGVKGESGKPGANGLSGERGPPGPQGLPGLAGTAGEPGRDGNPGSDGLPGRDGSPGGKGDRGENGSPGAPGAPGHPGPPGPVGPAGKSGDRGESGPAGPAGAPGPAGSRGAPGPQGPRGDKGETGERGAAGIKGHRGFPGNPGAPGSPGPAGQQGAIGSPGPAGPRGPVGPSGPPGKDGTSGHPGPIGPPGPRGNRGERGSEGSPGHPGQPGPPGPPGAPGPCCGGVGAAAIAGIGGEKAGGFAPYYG
Briefly: Surface plasmon resonance (BIAcore) binding of LAIR-IgG fusion proteins to immobilized collagen III. The method, then: as §1, §2, §3
A general note: In SPR one partner is held on a chip, and binding of the other changes the refractive index at the surface.

Data set [4] concerns endogenous hLAIR-1 ligand(s) on HT29 cells. Briefly: Fusion protein blocking study on HT29 cells (flow cytometry). Format: cell-based, human. The protocol: For fusion protein blocking studies, chimeric proteins of the extracellular domain of hLAIR-1 or LAIR-2 fused to the Fc region of human IgG1 were prepared as described previously(19). HT29 cells were pre-treated with 10% normal mouse serum to block aspecific interactions. Subsequently, HT29 cells were incubated with unlabeled hLAIR-1-IgG or LAIR-2-IgG for 10 minutes at room temperature and subsequently incubated with biotinylated hLAIR-1-IgG or LAIR-2-IgG for 30 minutes at room temperature. Binding of biotinylated proteins was detected with allophycocyanin (APC) conjungated streptavidin (BD Biosciences, San Diego, Calif.) and cells were analyzed by flow cytometry (FACSCalibur™, BD).
A general note: In flow cytometry, cells or beads pass a laser one at a time.

Data set [5] relates to hLAIR-1/collagen interaction. Briefly: Blocking of binding of hLAIR-1 expressing K562 cells to plate-bound collagens I and III. The format is cell-based, human. Conditions: pre-incubation of plate-bound collagens. The method, then:
Purified commercial collagens I, III (Sigma), II (Chemicon International), or BSA (100 μl/well, 20 μg/ml in PBS, 2 mM acetic acid) were coated overnight at 4° C. in 96-well MAXIsorp (Nunc) flat-bottom plates. After washings, wells were blocked with 1% (w/v) BSA. Meanwhile, 5×10^6 cells/ml wild type K562 cells or K562 transfectants were fluorescently labeled for 30 min at 37° C. with 5 μM calceine AM (Molecular Probes) in PBS. Cells were washed twice with RPMI/1% FCS and 100 μl medium of 1.5×10^6 cells/ml cells was added to each well and plates were incubated at 37° C. for 2 h. Input fluorescence was determined using a fluorescence plate reader (Fluoroskan Ascent, Thermo Labsystems), the plates were firmly flicked and washed for six times in culture medium. The retained fluorescence was determined for each well as a percentage of input fluorescence.
96-well MAXIsorp flat-bottom plates (Nunc) were coated overnight at 4° C. with purified collagens I or III (Sigma, 2 and 5 μg/ml respectively) or BSA (5 μg/ml) in 100 μl PBS, supplemented with 2 mM acetic acid. 5×10^6 cells/ml wild-type K562 or K562 stably transfected with hLAIR-1 were assayed for their capacity to adhere to the collagens in the 96 well plates as described before(15).

T1 sequence (P02452 162-1218 limits assumed): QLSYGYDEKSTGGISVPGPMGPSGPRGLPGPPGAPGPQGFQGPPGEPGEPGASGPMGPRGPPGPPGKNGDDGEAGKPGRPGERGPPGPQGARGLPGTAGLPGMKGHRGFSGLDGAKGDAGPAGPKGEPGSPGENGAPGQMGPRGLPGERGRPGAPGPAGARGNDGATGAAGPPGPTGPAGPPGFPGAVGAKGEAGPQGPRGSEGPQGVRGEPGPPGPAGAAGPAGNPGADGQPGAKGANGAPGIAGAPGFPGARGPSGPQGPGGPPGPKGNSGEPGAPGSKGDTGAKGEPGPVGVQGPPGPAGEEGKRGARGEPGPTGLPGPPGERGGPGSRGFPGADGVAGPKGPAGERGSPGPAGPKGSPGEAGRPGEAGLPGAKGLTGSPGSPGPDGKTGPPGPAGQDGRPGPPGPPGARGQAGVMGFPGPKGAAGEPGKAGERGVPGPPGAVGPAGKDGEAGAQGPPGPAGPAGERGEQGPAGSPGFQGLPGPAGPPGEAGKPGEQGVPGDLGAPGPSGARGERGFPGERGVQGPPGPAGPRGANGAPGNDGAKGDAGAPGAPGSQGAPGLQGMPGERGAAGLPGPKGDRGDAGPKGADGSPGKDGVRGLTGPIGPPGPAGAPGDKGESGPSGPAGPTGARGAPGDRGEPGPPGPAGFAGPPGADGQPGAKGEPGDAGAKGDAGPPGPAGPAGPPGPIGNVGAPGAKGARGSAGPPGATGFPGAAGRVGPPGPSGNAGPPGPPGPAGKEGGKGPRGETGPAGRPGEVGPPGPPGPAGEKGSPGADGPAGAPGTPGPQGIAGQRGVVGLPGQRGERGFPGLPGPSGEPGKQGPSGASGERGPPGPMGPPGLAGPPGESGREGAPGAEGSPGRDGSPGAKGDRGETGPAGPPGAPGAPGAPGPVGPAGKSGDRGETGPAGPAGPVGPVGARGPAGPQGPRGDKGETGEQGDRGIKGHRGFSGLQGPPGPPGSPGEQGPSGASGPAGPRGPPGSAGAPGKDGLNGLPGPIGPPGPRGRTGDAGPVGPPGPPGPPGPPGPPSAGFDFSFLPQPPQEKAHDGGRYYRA
T1 sequence (P08123 80-1119 limits assumed): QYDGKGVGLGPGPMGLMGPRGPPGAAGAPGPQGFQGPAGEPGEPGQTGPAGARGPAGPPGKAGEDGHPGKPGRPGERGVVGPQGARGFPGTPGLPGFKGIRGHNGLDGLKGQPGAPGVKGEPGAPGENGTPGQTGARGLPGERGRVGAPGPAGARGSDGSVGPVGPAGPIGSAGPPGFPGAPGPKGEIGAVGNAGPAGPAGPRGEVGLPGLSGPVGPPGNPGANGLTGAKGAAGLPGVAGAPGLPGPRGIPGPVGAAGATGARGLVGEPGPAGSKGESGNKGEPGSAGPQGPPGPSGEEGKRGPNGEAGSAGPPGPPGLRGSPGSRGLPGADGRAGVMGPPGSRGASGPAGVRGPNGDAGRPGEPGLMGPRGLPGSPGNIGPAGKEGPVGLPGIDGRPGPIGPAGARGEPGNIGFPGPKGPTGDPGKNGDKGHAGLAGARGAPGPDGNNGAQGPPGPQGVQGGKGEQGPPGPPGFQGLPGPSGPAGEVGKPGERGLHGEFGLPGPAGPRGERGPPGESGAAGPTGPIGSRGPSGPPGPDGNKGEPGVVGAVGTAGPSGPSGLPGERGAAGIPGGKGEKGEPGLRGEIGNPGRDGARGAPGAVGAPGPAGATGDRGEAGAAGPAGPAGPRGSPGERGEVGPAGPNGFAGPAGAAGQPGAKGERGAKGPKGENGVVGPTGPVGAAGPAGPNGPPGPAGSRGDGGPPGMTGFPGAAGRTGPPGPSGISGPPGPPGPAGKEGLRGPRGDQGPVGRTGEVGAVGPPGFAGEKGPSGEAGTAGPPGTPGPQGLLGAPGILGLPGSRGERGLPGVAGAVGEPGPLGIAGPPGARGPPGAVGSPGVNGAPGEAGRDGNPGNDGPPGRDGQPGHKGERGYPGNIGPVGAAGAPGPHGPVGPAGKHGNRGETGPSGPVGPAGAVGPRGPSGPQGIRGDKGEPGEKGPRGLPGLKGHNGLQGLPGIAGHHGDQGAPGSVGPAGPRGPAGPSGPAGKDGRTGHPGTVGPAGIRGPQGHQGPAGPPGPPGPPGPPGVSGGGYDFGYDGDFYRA

B1: hLAIR-1-IgG: Chimeric protein of human LAIR-1 fused to the Fc region of human IgG1 (protein)
chain: QEEDLPRPSISAEPGTVIPLGSHVTFVCRGPVGVQTFRLERDSRSTYNDTEDVSQASPSESEARFRIDSVREGNAGLYRCIYYKPPKWSEQSDYLELLVKESSGGPDSPDTEPGSSAGPTQRPSDNSHNEHAPASQGLKAEHLY
modifications: left off: a dimerising Fc or GST
notes: Chimeric protein of human LAIR-1 fused to the Fc region of human IgG1
As to B1, the “binding to collagen I (in words)” value in data set [1] is recorded as “high affinity”. Further, the “higher affinity as compared to most IgSF-members interacting with their ligands” value in data set [1] (collagen I and III) is listed as 20-1000 fold. Besides, the “number of LAIR molecules / binding sites per single triple-helical collagen I molecule (Bmax)” value in data set [1] (from Bmax of binding isotherm) is “approximately 10.4”. Moreover, the “binding to Ba/F3 cells stably transfected with human collagen XVII” value in data set [2] was “specific binding”. Further, the “binding to collagen III (in words)” value in data set [3] was “high affinity”. The “number of LAIR molecules / binding sites per single triple-helical collagen III molecule (Bmax)” value in data set [3] (from Bmax of binding isotherm) is on record as around 9.7. The “dissociation from collagen (in words)” value in data set [3] (hLAIR-1-IgG: collagen I and III, LAIR-2-IgG: collagen III, collagen I comparable) is “relatively slow dissociation”. For the same molecule, the “biotinylated LAIR-2-IgG staining of HT29 cells after pre-incubation” value in data set [4] was “reduced”.

B2: wild-type LAIR-2: wild-type LAIR-2 protein in concentrated supernatant from LAIR-2-transfected 293T cells (protein)
chain: QEGALPRPSISAEPGTVISPGSHVTFMCRGPVGVQTFRLEREDRAKYKDSYNVFRLGPSESEARFHIDSVSEGNAGLYRCLYYKPPGWSEHSDFLELLVKGTVPGTEASGFDAP
Take B2: in data set [5], the “blocking of binding of hLAIR-1 expressing K562 cells to plate-bound collagens I and III” value is “blocked”.
